Assay results reported in publication PMC6863704 (Protein Science : A Publication of the Protein Society, 2019).

Molecular target: the molecule itself
Test: NMR

B1: p50 dimerization domain of NFκB1 (residues 241–351), long construct with non-native N-terminal extension (domain or fragment, mouse)
chain: VGTGSNDDDDKAPNASNLKIVRMDRTAGCVTGGEEIYLLCDKVQKDDIQIRFYEEEENGGVWEGFGDFSPTDVHRQFAIVFKTPKYKDVNITKPASVFVQLRRKSDLETSEPKPFLYYPEI
- stoichiometry N: 2
